Measured values taken from the NTF2 design screens of Basanta et al. (2020).

Assay: protease stability score; higher = more stable; yeast display proteolysis, trypsin and chymotrypsin;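 further: relative to predicted unfolded state with 0 unfolded-like and 1 meaning tenfold more protease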

| Sequence | protease stability score |
| --- | --- |
| HEMEEMEELAFRLIEESIRTGDFTTLEDLFDPDTRIIIGDKDLHGREALRHLRERIDHLKELRVHRRTFIGDWLDMNLHMTGNVNGVEHRRDVRFIIWKINGQWRIHSVYEV | 1.38 |
| HEMKEESEKAVRLMVHLFKTGDEETIYRMADPNARFFFDGRHIHGMDHVFREVLRLEREYGVKHFELRDMELRIFDGRIFLHIDGVEEFNGRRLETHLHFESRKIDGRWHFQSESIVLR | 0.317 |
| HEMQEEAHIATELIIDTFKTGDEKKMRELFDPTPRLHQGDKRFHGREEVVHIISERIHRFGFNHIEVKTVRVQGDFIIVHGEKDVNGQRVEVILHIWKYDGRWEVHRIEIR | 1.23 |
| HENEEAAEHIFELFLDSLRTGDPDVVERLLDPHVKLDINGVEFHGREEAVHILMEEWKRLGIDHFEIKRIELRVYNGVVHIEIDSRTQVNGQKHHTKYRIIVIKINGRWHVNLLYIYIE | 2.12 |
| HENEENETEAIRLFLRVMLTGDEHDLKRMFDPDMKVEIGDKRIVGRERVLEHWLHTAERFGLTNIYLQLDHVRVINGRVDIDFHVRFNGRTERVHLHILKINGKWIVEHLEVR | 1.36 |
| HENEHRMKEFVREVFDLRRTGNWEQLQELFDPNVRIEIGDKRYHGWENLSHFLLHARQDMHIEVTSVEVQGDKIIADGRLEYTLRVGDKDVTYDHRTIIIAHKFNGKWFFTTERIK | 1.33 |
| HEQDEAWDVINRDLAQSIETGDEHTERELLDPNVRIDFDGVKLHGRDEWHDFVRKELEHLGVDRIDIRIEIHNSKYQGEKVDSDTELKIRYGDKHVRIKTRLILHKIDGRWLVKSIQIN | 1.1 |
| HEQEKFVREYFELWVRAFLTGDEDTILDMMDPDVRIIYGDKTVVGWKELHKFLKRVDHARIKFEFRNTRYDENEAEVDGHRIVHLFFDGKIFDITTQIHVHMVKIDGVWTMKTIVNK | 1.55 |
| HEREEWSENAFRMILRSLMTGDERTLYELADPNVRLDVNGQDYHGREDFLHFYTHFLFRADHVELILRRERPVGDKLELDGELVSRVGDKTHHVEVRIVLWKVNGRWLIHSVYII | 1.81 |
| HEREHLLERMLKLLLELLLTGDEDTWKHYLDPHTRVIFNGREEHGRTAFERFVKELGVDHIEFKHVEIRHIGDKVHLHVDARVEINGRKHNMHLHIHLRKIDGQWEVKEFRIEIE | 1.27 |
| HERERMLEVALRLFIETMRTGDEKITSELADPNVKIHIGDKTDHGRESFTNFFEEMGADHVNVHDVEVQGDKVKTDIRIQIGDKMVESILYVKKVNGRWLIRSIEIR | 1.05 |
| HERQKEMETLVELFDEEWLTGNEQTHRRLADPHMKLDVNGKTYHGWKQYNKHLQDFLKRIDHVELEIKRIRVQGEYAHSDGTLRMHYNGVTEERNVHVEINIIDGRLKSVHLKVE | 1.1 |
| HESDKLVDEIFKTFIHAIVTGDEETLKTMLDPNTKFILIYGDKYHEHHGWRDLIRWLREIRIREIIHRHVENQGDKVHHEGELRGEFNGKEIRTEIHIHMVVVNGKLRRMEWEIK | 2.07 |
| HESEELAKHFSKIMDDLIRTGDEEHFDRLLDPNVKLDVNGRTIHGRERVSEIIHEKNKELGIDQIHVRKQDEHIIGDKLILHIEIIYGDKRIELIIITRKINGKWRIESVELREH | 0.876 |
| HESEEYAHRVSKDFDRAMRTGDWLRLLELIDPNARLHVGEFHVHGMEDIEKWIRHFLHRVDVIHIRVRDMRVQGEKVDVDYEIEERQGDKRRHYESRTIILKIDGKWHIKEIHIH | 1.14 |
| HESHEFVKEAFRLWVESLRTGDEKTLSRYADPHVRVTYDGREFHGRDWYVKLMDELRVNDVKLDDVNVQGEKIDIEGTIDGQVNGQDREIKVRLHAEKINGRWVNKKIQID | 1.11 |
| HESHNRVERILEEFFKAVETGDWRVLHELLDPHVRLDVDGRDHHGREDFSRFMKEIRVEEFRVTHLQIQGDKANVQSHRVGTYNGKRQEIRTWIHITKIDGQWYITEVTME | 0.544 |
| HESQEHDDRILDLFETLLRTGDWERLFQLADPHVRLRLHYGDKEIHQVGREEVVRMFLWWRERFGVDHFEVHEVRVVDGVNHIDGRLTVNGRNRRTEIVFIVVNGRIKEFEVRHR | 2.24 |
| HESTEYADYMLKFLSLVESTGNEDLFKRLFDPDVRLVINGVDTHGWESYHEHRKRVDHKEVEHSEIKHVEVQGEKIIVHGILHVRVKIGDKRFSFEIRFHLIVHKFNGKWHITSIEFH | 0.848 |
| HETEKLTKEYIREELEVLKTGDEKETRELLDPDVRIEQGEFSTHGWDYATHWLRTFTERVKGAQFEKKTIRVINGRVNIHMLMHFNGREERIDLISVKIDGRWLIKSVHIHIE | 0.208 |
